Source: patent US20250186597A1, “TARGETED IMMUNE ACTIVATION WITH IL-18 IMMUNOCYTOKINES” (BRIGHT PEAK THERAPEUTICS AG, priority 2023, published 2025)

These molecules were tested against T1, human IL-18BP (Homo sapiens, UniProt O95998) (assay: IL-18BP binding alphaLISA assay (Example 4, used in Example 22B)). Conditions: IL-18BP AlphaLISA.
T1 construct: His
T1 sequence (O95998 31-194): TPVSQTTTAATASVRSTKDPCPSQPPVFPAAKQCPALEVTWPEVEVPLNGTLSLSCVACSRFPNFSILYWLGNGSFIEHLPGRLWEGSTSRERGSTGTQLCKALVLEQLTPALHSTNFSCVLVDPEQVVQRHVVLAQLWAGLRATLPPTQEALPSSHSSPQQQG
Method: A human IL-18BP AlphaLISA Assay Kit is used to determine the binding affinity of each immunocytokine and IL-18 variant for IL-18BP, which detected the presence of free form IL-18BP.
Sixteen three-fold serial dilutions of IL-18 analytes are prepared in aMEM medium supplemented with 20% FCS, Glutamax, and 25 µM β-mercaptoethanol in the presence of 5 ng/mL of His-tagged human IL-18BP. Final IL-18 analytes concentration range from 2778 nM to […].
After 1 hr incubation at room temperature, free IL-18BP levels are measured using a […]. In a 384 well OPTIplate, 5 μL of 5× Anti-IL-18BP acceptor beads are added to 7.5 μL of an IL-18/IL-18BP mix. After 30 min incubation at room temperature with shaking, 5 μL of biotinylated Anti-IL-18BP antibodies are added to each well. The plate is incubated further for 1 hr at room temperature. Under subdued light, 12.5 μL of 2× streptavidin (SA) donor beads are pipetted into each well, and the wells are incubated with shaking for an additional 30 min at room temperature. The AlphaLisa signal is then measured on an Enspire plate reader with 680 and 615 nm as excitation and emission wavelengths, respectively. The dissociation constant (KD) is calculated based on a variable slope, four parameter analysis using GraphPad PRISM software.
An IL-18 binding protein AiphaLISA experiment substantially as described in Example 4 was performed on IL-18 polypeptide which can be incorporated into immunocytokine compositions as provided herein to assess ability to bind to IL-181BP. It is expected that the IL-18 polypeptides provided below would behave analogously to C086 (SEQ ID NO: 30) when incorporated into an immunocytokine composition as those otherwise provided herein.

Molecule	Kd [µM]
56 (protein) YFGKLKSKLSVIRNLNDQVLFIDQGNRPLFEDMTDSDSRDNAPRTIFIISMYADSQPRGMAVTISVKCEKISTLSSENKIISFKEMNPPDNIKDTKSDIIFFQRSVPGHDNKMQFESSSYEGYFLASEKERDLFKLILKKEDELGDRSIMFTVQNED	0.435
SEQ ID NO: 69: IL-18 polypeptide: E6K, V11I, C38A, M51G, K53A, T63A, C76A, C127A (protein) YFGKLKSKLSIIRNLNDQVLFIDQGNRPLFEDMTDSDARDNAPRTIFIISGYADSQPRGMAVAISVKCEKISTLSAENKIISFKEMNPPDNIKDTKSDIIFFQRSVPGHDNKMQFESSSYEGYFLAAEKERDLFKLILKKEDELGDRSIMFTVQNED	> 2.8
C178: IL-18 polypeptide: E6K, V11I, C38A, K53A, T63A, C76A, Q103R, C127A (protein) YFGKLKSKLSIIRNLNDQVLFIDQGNRPLFEDMTDSDARDNAPRTIFIISMYADSQPRGMAVAISVKCEKISTLSAENKIISFKEMNPPDNIKDTKSDIIFFRRSVPGHDNKMQFESSSYEGYFLAAEKERDLFKLILKKEDELGDRSIMFTVQNED	> 2.8
C181: IL-18 polypeptide: E6K, V11I, C38A, K53A, T63A, C76A, C127A, V153E (protein) YFGKLKSKLSIIRNLNDQVLFIDQGNRPLFEDMTDSDARDNAPRTIFIISMYADSQPRGMAVAISVKCEKISTLSAENKIISFKEMNPPDNIKDTKSDIIFFQRSVPGHDNKMQFESSSYEGYFLAAEKERDLFKLILKKEDELGDRSIMFTEQNED	> 2.8
C177: IL-18 polypeptide: E6K, V11I, C38A, I49R, K53A, T63A, C76A, C127A (protein) YFGKLKSKLSIIRNLNDQVLFIDQGNRPLFEDMTDSDARDNAPRTIFIRSMYADSQPRGMAVAISVKCEKISTLSAENKIISFKEMNPPDNIKDTKSDIIFFQRSVPGHDNKMQFESSSYEGYFLAAEKERDLFKLILKKEDELGDRSIMFTVQNED	> 2.8
C179: IL-18 polypeptide: E6K, K8E, V11I, C38A, K53A, T63A, C76A, Q103R, C127A (protein) YFGKLKSELSIIRNLNDQVLFIDQGNRPLFEDMTDSDARDNAPRTIFIISMYADSQPRGMAVAISVKCEKISTLSAENKIISFKEMNPPDNIKDTKSDIIFFRRSVPGHDNKMQFESSSYEGYFLAAEKERDLFKLILKKEDELGDRSIMFTVQNED	> 2.8
C176: IL-18 polypeptide: E6K, V11I, C38A, I49M, K53A, T63A, C76A, C127A (protein) YFGKLKSKLSIIRNLNDQVLFIDQGNRPLFEDMTDSDARDNAPRTIFIMSMYADSQPRGMAVAISVKCEKISTLSAENKIISFKEMNPPDNIKDTKSDIIFFQRSVPGHDNKMQFESSSYEGYFLAAEKERDLFKLILKKEDELGDRSIMFTVQNED	0.0258
C174: IL-18 polypeptide: K8L, E6K, V11I, C38A, K53A, T63A, C76A, C127A (protein) YFGKLKSLLSIIRNLNDQVLFIDQGNRPLFEDMTDSDARDNAPRTIFIISMYADSQPRGMAVAISVKCEKISTLSAENKIISFKEMNPPDNIKDTKSDIIFFQRSVPGHDNKMQFESSSYEGYFLAAEKERDLFKLILKKEDELGDRSIMFTVQNED	0.00014
C182: IL-18 polypeptide: E6K, V11I, C38A, K53A, T63A, C76A, C127A, V153Y (protein) YFGKLKSKLSIIRNLNDQVLFIDQGNRPLFEDMTDSDARDNAPRTIFIISMYADSQPRGMAVAISVKCEKISTLSAENKIISFKEMNPPDNIKDTKSDIIFFQRSVPGHDNKMQFESSSYEGYFLAAEKERDLFKLILKKEDELGDRSIMFTYQNED	> 2.8
